± gives the standard deviation of the averaged measurements.
B1: library; a variant is named by its letters at N, in order (parent)
chain: GCUGUCACCGAGAAACUGUGAAGUAUAUCUUAAACCUGGGCACUUAAAAGAUAUAUGGAGUUAGUAGUGCAACCUGCUCGGUCUGAUGAGUCCNNNNNNGGACGAAACAGC

Legend:
cyclic di-GMP [1] = variants of: B1; assay: FACS-Seq fitted mean relative fluorescence mCherry/BFP without ligand (log10 relative fluorescence); HEK293T; ligand: cyclic di-GMP (c-di-GMP-II aptamer); higher = higher reporter protein expression; conditions: ligand present: no
Outline: (§1)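 Fluorescence figures are normalized fitted normal means of sequenced bin counts. Enriched, lentivirally transduced HEK293T libraries with a ribozyme-switch mCherry reporter and EF1α-BFP were held 48 h with or without ligand, then sorted into 6 mCherry/BFP bins. PCR-amplified, barcoded genomic DNA from each bin was sequenced on MiSeq. Means of log10(mCherry/BFP) were scaled to five spiked-in control ribozymes.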

cyclic di-GMP [2] = variants of: B1; assay: normalized RNA/DNA level without ligand (relative to sTRSVctl = 100) (log10 (% of sTRSVctl)); HEK293T; ligand: cyclic di-GMP (c-di-GMP-II aptamer); higher = less ribozyme self-cleavage, higher mRNA level; conditions: reporter: mCherry (pCS4076), ligand present: no
Method: (§2)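 Hammerhead (sTRSV) ribozyme switch libraries with a ligand aptamer grafted on stem I and a randomized N4-6 loop II, cloned into the 3' UTR of mCherry and transiently transfected into HEK293T cells; RNA-Seq 72 h post transfection with ligand added 1 h before transfection; RNA read count / plasmid DNA read count normalized to the non-cleaving sTRSVctl (x100), log10; sequences with >100 DNA reads. FACS-Seq: lentiviral library sorted into 6 bins after 48 h ligand, log-normal fit mean of mCherry/BFP scaled to controls. Printed sequences are partial switch sequences.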

cyclic di-GMP [3] = variants of: B1; assay: FACS-Seq fitted mean relative fluorescence mCherry/BFP with ligand (log10 relative fluorescence); HEK293T; ligand: cyclic di-GMP (c-di-GMP-II aptamer); ligand concentration (+) FACS-Seq: 1 mM; higher = higher reporter protein expression; conditions: ligand present: yes
Outline: as §1

cyclic di-GMP [4] = variants of: B1; assay: normalized RNA/DNA level with ligand (relative to sTRSVctl = 100) (log10 (% of sTRSVctl)); HEK293T; ligand: cyclic di-GMP (c-di-GMP-II aptamer); ligand concentration (+) RNA-Seq: 1 mM; higher = less ribozyme self-cleavage, higher mRNA level; conditions: reporter: mCherry (pCS4076), ligand present: yes
Method: as §2

| Variant | FACS-Seq fitted mean (log10) (cyclic di-GMP [1]) | normalized RNA/DNA level without ligand (log10) (cyclic di-GMP [2]) | FACS-Seq fitted mean (log10) (cyclic di-GMP [3]) | normalized RNA/DNA level with ligand (log10) (cyclic di-GMP [4]) |
| --- | --- | --- | --- | --- |
| GAGAUU | -0.388 ± 0.22 | 1.71 ± 0.035 | -0.0338 ± 0.038 | 1.82 ± 0.1 |
| GCAAAG | -0.5587 ± 0.0035 | 1.41 ± 0.099 | -0.278 ± 0.024 | 1.62 ± 0.087 |
| GCAAAC | -0.826 ± 0.056 | 1.39 ± 0.064 | -0.0625 ± 0.35 | 1.57 ± 0.085 |
| GCAAAU | -0.773 ± 0.072 | 1.39 ± 0.071 | -0.484 ± 0.094 | 1.61 ± 0.12 |
| CAGUUC | -0.4497 ± 0.0028 | 1.66 ± 0.038 | -0.1164 ± 0.00072 | 1.82 ± 0.097 |
| CAGUUU | -0.341 ± 0.0054 | 1.5 ± 0.0081 | -0.0345 ± 0.033 | 1.67 ± 0.12 |
| CAGUUA | -0.724 ± 0.01 | 1.28 ± 0.15 | -0.4923 ± 0.0038 | 1.42 ± 0.041 |
| GAUUAA | -0.0108 ± 0.066 | 1.55 ± 0.057 | 0.211 ± 0.1 | 1.74 ± 0.087 |
| UAUGGU | -0.169 ± 0.095 | 1.569 ± 0.014 | 0.0872 ± 0.053 | 1.76 ± 0.11 |
| AAGUUA | -0.499 ± 0.08 | 1.529 ± 0.0062 | -0.215 ± 0.06 | 1.74 ± 0.14 |
| UAGACU | -0.164 ± 0.073 | 1.68 ± 0.051 | 0.141 ± 0.12 | 1.85 ± 0.13 |
| AAGACA | -0.415 ± 0.14 | 1.55 ± 0.044 | -0.0423 ± 0.083 | 1.74 ± 0.1 |
| AAGACG | -0.185 ± 0.037 | 1.54 ± 0.084 | 0.133 ± 0.15 | 1.73 ± 0.097 |
| CCAAUA | -0.5437 ± 0.0029 | 1.36 ± 0.12 | -0.271 ± 0.066 | 1.59 ± 0.11 |
| CCAAUG | -0.6462 ± 0.0011 | 1.23 ± 0.16 | -0.334 ± 0.017 | 1.49 ± 0.018 |
| UAGUGG | -0.133 ± 0.082 | 1.71 ± 0.064 | 0.162 ± 0.086 | 1.84 ± 0.069 |
| UAGUGA | -0.51 ± 0.069 | 1.626 ± 0.0075 | -0.218 ± 0.016 | 1.77 ± 0.15 |
| ACAAAU | -0.483 ± 0.17 | 1.37 ± 0.13 | -0.291 ± 0.042 | 1.57 ± 0.08 |

| Variant | FACS-Seq fitted mean (log10) (cyclic di-GMP [1]) | normalized RNA/DNA level without ligand (log10) (cyclic di-GMP [2]) | FACS-Seq fitted mean (log10) (cyclic di-GMP [3]) | normalized RNA/DNA level with ligand (log10) (cyclic di-GMP [4]) |
| --- | --- | --- | --- | --- |
| ACAAAA | -0.498 ± 0.059 | 1.31 ± 0.11 | -0.271 ± 0.018 | 1.52 ± 0.069 |
| UAGGGA | -0.172 ± 0.12 | 1.53 ± 0.039 | -0.000875 ± 0.13 | 1.68 ± 0.14 |
| UAGGGU | -0.424 ± 0.015 | 1.61 ± 0.075 | -0.0926 ± 0.068 | 1.78 ± 0.13 |
| CAUGAA | -0.704 ± 0.022 | 1.28 ± 0.092 | -0.4855 ± 0.00097 | 1.43 ± 0.12 |
| CAUGAC | -0.0513 ± 0.12 | 1.63 ± 0.033 | 0.217 ± 0.061 | 1.79 ± 0.13 |
| UAGGAA | -0.246 ± 0.044 | 1.49 ± 0.07 | -0.00386 ± 0.085 | 1.68 ± 0.16 |
| CAGUAU | -0.4929 ± 0.0046 | 1.4 ± 0.1 | -0.197 ± 0.0062 | 1.58 ± 0.17 |
| CAGUAA | -0.526 ± 0.094 | 1.14 ± 0.14 | -0.22 ± 0.0072 | 1.33 ± 0.073 |
| CCAAAU | -0.277 ± 0.053 | 1.52 ± 0.099 | -0.0208 ± 0.13 | 1.71 ± 0.074 |
| CCAAAC | -0.366 ± 0.047 | 1.6 ± 0.019 | -0.0651 ± 0.082 | 1.75 ± 0.14 |
| CAGCUA | -0.432 ± 0.009 | 1.37 ± 0.077 | -0.148 ± 0.079 | 1.56 ± 0.076 |
| CAGCUU | -0.396 ± 0.075 | 1.62 ± 0.095 | -0.151 ± 0.049 | 1.75 ± 0.091 |
| CAGCUG | 0.189 ± 0.018 | 1.767 ± 0.0057 | 0.403 ± 0.038 | 1.84 ± 0.12 |
| GAGAGA | -0.796 ± 0.023 | 1.61 ± 0.037 | -0.733 ± 0.053 | 1.72 ± 0.086 |
| GAGCAG | -0.832 ± 0.019 | 1.9 ± 0.058 | -0.596 ± 0.16 | 1.95 ± 0.13 |
| AAGAAA | -0.319 ± 0.062 | 1.38 ± 0.11 | -0.0342 ± 0.062 | 1.56 ± 0.035 |
| AAGAAC | -1.03 ± 0.025 | 1.55 ± 0.029 | -0.842 ± 0.066 | 1.73 ± 0.1 |
| AAGAAU | -0.565 ± 0.046 | 1.54 ± 0.062 | -0.225 ± 0.05 | 1.74 ± 0.073 |
